Experimental data reported in US20150274799A1, “GLP-1 ANALOGUE, ITS PREPARATION METHODS AND USE THEREOF” (TIANJIN INSTITUTE OF PHARMACEUTICAL RESEARCH, priority 2011, published 2015).
Ends that are not written are not given here.

What was measured:
[1] = cited from earlier work
[2] = in vivo; cited from earlier work

Substance | half-life in human serum [h] | serum half-life [1] [min] | half-life of GLP-1 administered alone [2] [min]
^7HAEGT FTSDVSSYLEGQAAKEFICWLCKGRG^37GG C GGGGG GGGGGGGGGG (HAEGTFTSDVSSYLEGQAAKEFICWLCKGRGGGCGGGGGGGGGGGGGGG; disulfide (positions not given here); also: contains disulfide bonds, places not given here (three Cys)) [SEQ ID NO 59] | > 24 | – | –
HAEGTFTSDVSSYLEGQAAKEFIAWLVKGRG [GLP-1] | – | 3 to 5 | 3 to 5
^7HAEGT FTSDVSSYLEGQAAKEFICWLCKGRG^37GG C GGGGG GGGGG (HAEGTFTSDVSSYLEGQAAKEFICWLCKGRGGGCGGGGGGGGGG; disulfide (positions not given here); also: contains disulfide bonds, places not given here (three Cys)) [SEQ ID NO 58] | > 24 | – | –
